Data as given in the supplement of paper PMC7125110.
± gives the standard error. Fewer inactive variants are shown than the library holds.

B1: glmS ribozyme (parent)
chain: AUAAAAGCGCCAGAACUACAGAAAUGUAGUUGACGAGGAGGAGGUUUAUCGAAUUUUCGGCGGAUGCCUCCAAA

Key:
Conditions in all cases: with glucosamine-6-phosphate
[1] = variants of: B1; experiment: self-cleavage kobs at 40 uM GlcN6P; higher = faster cleavage; RNA array
Procedure, shortened: (§1)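 Barcoded glmS ribozyme variants on sequenced MiSeq chips were transcribed in situ by E. coli RNA polymerase and tracked through a hybridised Cy3 probe at 37 °C. Glucosamine-6-phosphate (40 μM to 10 mM) in HEPES/KCl/Mg(OAc)2 buffer was flowed in, and tiles were imaged over ~14 h. Signals were normalised to baseline and to non-cleaving reference variants; per-tile medians were fit to one- or two-exponential decays to give kobs. kcat and KM came from weighted Michaelis–Menten fits across concentrations.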

[2] = variants of: B1; experiment: self-cleavage kobs at 160 uM GlcN6P; higher = faster cleavage; RNA array
Procedure, shortened: as §1

[3] = variants of: B1; experiment: self-cleavage kobs at 640 uM GlcN6P; higher = faster cleavage; RNA array
Procedure, shortened: as §1

[4] = variants of: B1; experiment: self-cleavage kobs at 2500 uM GlcN6P; higher = faster cleavage; RNA array
Procedure, shortened: as §1

[5] = variants of: B1; experiment: self-cleavage kobs at 10000 uM GlcN6P; higher = faster cleavage; RNA array
Procedure, shortened: as §1

Row | Variant | self-cleavage kobs at 40 uM GlcN6P [1] [s⁻¹] | self-cleavage kobs at 160 uM GlcN6P [2] [s⁻¹] | self-cleavage kobs at 640 uM GlcN6P [3] [s⁻¹] | self-cleavage kobs at 2500 uM GlcN6P [4] [s⁻¹] | self-cleavage kobs at 10000 uM GlcN6P [5] [s⁻¹]
1 | A6C G62C | < 1e-05 | < 1e-05 | < 1e-05 | < 1e-05 | < 1e-05
2 | C34A G43C A48G | < 1e-05 |  |  |  | 
3 | G13C C50G G63A C70G | 0.000201 ± 7.2e-05 |  |  |  | 0.000144 ± 4.2e-05
4 | G13C G63A | < 1e-05 |  | < 1e-05 | < 1e-05 | 
5 | U30A U56A | 9.28e-05 ± 1.4e-05 |  |  |  | 0.00496 ± 0.00075
6 | A33G G66A | < 1e-05 | < 1e-05 |  |  | < 1e-05
7 | G41A C61U | < 1e-05 | < 1e-05 | < 1e-05 |  | < 1e-05
8 | G13U C16U C70U | 5.86e-05 ± 1.3e-05 |  |  |  | 0.00165 ± 0.00029
9 | U30A U54A G59U G62U C67U C70U | < 1e-05 |  |  |  | < 1e-05
10 | A12C C16U G41U | 6.93e-05 ± 2e-05 |  | 0.000163 ± 3.3e-05 | 0.000447 ± 9.6e-05 | 0.000649 ± 0.00015
11 | U2A A3U C50A | < 1e-05 |  |  |  | 3.38e-05 ± 1.2e-05
12 | C8G C34A A53C G60C | < 1e-05 | < 1e-05 | < 1e-05 | < 1e-05 | 
13 | G37A C50U | < 1e-05 | < 1e-05 |  | < 1e-05 | 
14 | G44U U57C | < 1e-05 |  | < 1e-05 | < 1e-05 | < 1e-05
15 | C11U U45G C50A | < 1e-05 |  |  |  | 
16 | A52G U54G C61G | < 1e-05 |  |  |  | 
17 | C11U U31C U47C A52U | < 1e-05 |  |  |  | < 1e-05
18 | G43C G66A | < 1e-05 |  |  |  | 
19 | G29U G37C A39G U56A C61G | < 1e-05 |  |  |  | 
20 | C10U G29C G37A A53C | < 1e-05 |  |  |  | 
21 | A42C U45A C67A | < 1e-05 |  |  |  | 
22 | G9C U45C U47A C67G | < 1e-05 |  |  |  | 
23 | G9A U65C | < 1e-05 | < 1e-05 | < 1e-05 | < 1e-05 | < 1e-05
24 | A15C G37U | < 1e-05 |  | < 1e-05 |  | < 1e-05
25 | G32C U47C | < 1e-05 | < 1e-05 |  |  | 
26 | A33C G51A G66A C70G | < 1e-05 |  |  |  | 

Row | Variant | self-cleavage kobs at 40 uM GlcN6P [1] [s⁻¹] | self-cleavage kobs at 160 uM GlcN6P [2] [s⁻¹] | self-cleavage kobs at 640 uM GlcN6P [3] [s⁻¹] | self-cleavage kobs at 2500 uM GlcN6P [4] [s⁻¹] | self-cleavage kobs at 10000 uM GlcN6P [5] [s⁻¹]
27 | G29A G37U G40U U65G C68U | < 1e-05 |  |  |  | 
28 | A6U C34G | < 1e-05 | < 1e-05 |  | < 1e-05 | < 1e-05
29 | U46G A53U U69C | 7.38e-05 ± 2.7e-05 |  |  |  | 0.00109 ± 0.0003
30 | A14G A33G G59U | < 1e-05 |  |  |  | 
31 | G38C G44U C58U A64U | < 1e-05 |  |  |  | < 1e-05
32 | G29A G38A U46G C61U | < 1e-05 |  |  |  | < 1e-05
33 | A6G A12G G66A | < 1e-05 |  | < 1e-05 |  | 
34 | C8G G59U | < 1e-05 | < 1e-05 | < 1e-05 | < 1e-05 | 
35 | U46G G66C | 0.000227 ± 3.8e-05 | 0.000418 ± 0.00013 | 0.00135 ± 0.00038 | 0.00594 ± 0.0017 | 
36 | G35U U54A | < 1e-05 | < 1e-05 | < 1e-05 | < 1e-05 | 
37 | A42C G51A C61U | < 1e-05 | < 1e-05 |  |  | < 1e-05
38 | A33C C50G C71U | 0.000772 ± 0.00027 |  | 0.000204 ± 5.8e-05 | 0.000589 ± 0.00017 | 5.96e-05 ± 2.9e-05
39 | C10A U46G C68G | 0.000169 ± 4.8e-05 |  |  |  | 6.66e-05 ± 2.2e-05
40 | A36U A39U C50U C61G U65A | < 1e-05 |  |  |  | < 1e-05
41 | U30G A53G | 0.000307 ± 5.3e-05 | 0.00064 ± 0.00013 | 0.00172 ± 0.0004 | 0.00534 ± 0.00076 | 0.0151 ± 0.0037
42 | G37U G41C C70U | < 1e-05 |  |  |  | 
43 | C16A G29U | 0.000701 ± 7.4e-05 | 0.00212 ± 0.00064 | 0.00517 ± 0.00081 | 0.0144 ± 0.0033 | 0.0387 ± 0.0071
44 | C10U G38A G66U | < 1e-05 |  |  |  | 
45 | G35A G44U U65A C70G | < 1e-05 | < 1e-05 |  | < 1e-05 | 
46 | U31G U45G C61A | < 1e-05 |  |  | < 1e-05 | < 1e-05
47 | A33C A52U | < 1e-05 |  | < 1e-05 |  | < 1e-05
48 | G37A G51A U55G | < 1e-05 |  |  |  | < 1e-05
49 | G41U G66C C68U | < 1e-05 | < 1e-05 | < 1e-05 | < 1e-05 | 
50 | U31A U45G U54G C58A C61A | < 1e-05 | < 1e-05 |  |  | < 1e-05
51 | A39C U65G C70G | < 1e-05 | < 1e-05 | < 1e-05 |  | < 1e-05
